The target in one data set is T1, human recombinant PLA2G5 (Homo sapiens, UniProt P39877).
T1 construct: purchased Cayman chemical 10009563
T1 sequence (P39877 21-138): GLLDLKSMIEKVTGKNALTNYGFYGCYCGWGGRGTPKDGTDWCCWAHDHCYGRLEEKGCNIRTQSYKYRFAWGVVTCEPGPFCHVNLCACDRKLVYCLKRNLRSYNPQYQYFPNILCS
Put plainly: In vitro erythrocyte lysis assay with varespladib. The data set is classed as cell-based. As to conditions: 100 nM of varespladib; PS-exposing erythrocytes. The procedure: (§1) The inventors hypothesized that PLA2G5 impacted red blood cells because of the impact of PLA2G5 blockade on splenic red pulp macrophages and iron stores. […] Next, the inventors examined the effect of osmotic pressure on the hemolysis induced by rPLA2G5.
In vitro erythrocyte lysis assay. Mouse whole blood was spun at 1,000 g, the plasma and buffy coat were removed, and red blood cells were washed three times in Hepes-buffered saline. Subsequently, a portion of erythrocytes was incubated with 100 μM CaCl2) in Hepes-buffered saline for 3 min at 37° C. Calcium ionophore (Cayman Chemical, A23187) was added to a final concentration of 4 μM, and the cells were further incubated for 10 min at 37° C. to induce membrane phospholipid (PS) scrambling. After that, 2 mM EDTA was added to stop the reaction. […] Hemolysis was measured by determining the amount of oxyhemoglobin in the supernatant of erythrocyte suspensions after centrifugation at 4,000 g. The absorbance at 414 nm in the supernatant of erythrocyte suspensions was measured using Nanodrop (Thermoscientific) and compared to that of a hemolyzed aliquot of the same erythrocyte suspension treated with Triton X-100.

In another data set the test system is mouse RBCs. In words: In vitro erythrocyte lysis assay with recombinant PLA2G5. In kind it is cell-based. The procedure: as §1
In vitro erythrocyte lysis assay. Mouse whole blood was spun at 1,000 g, the plasma and buffy coat were removed, and red blood cells were washed three times in Hepes-buffered saline. Subsequently, a portion of erythrocytes was incubated with 100 μM CaCl2) in Hepes-buffered saline for 3 min at 37° C. Calcium ionophore (Cayman Chemical, A23187) was added to a final concentration of 4 μM, and the cells were further incubated for 10 min at 37° C. to induce membrane phospholipid (PS) scrambling. After that, 2 mM EDTA was added to stop the reaction. In the presence or absence of 100 nM of varespladib, hypertonic solution (100 mM NaCl), or hypotonic solution (water-diluted Hepes-buffered saline), PS-exposing or untreated erythrocytes (10^9 cells/mL) were incubated with 5, 50, or 500 ng/mL of human recombinant PLA2G5 (Cayman chemical, 10009563) for 1 h at 37° C. in Hepes-buffered saline with 2 mM of calcium for the activity of PLA2G5. Hemolysis was measured by determining the amount of oxyhemoglobin in the supernatant of erythrocyte suspensions after centrifugation at 4,000 g. The absorbance at 414 nm in the supernatant of erythrocyte suspensions was measured using Nanodrop (Thermoscientific) and compared to that of a hemolyzed aliquot of the same erythrocyte suspension treated with Triton X-100.

The next data set has as its system erythrocytes. In words: Lipidomics analysis of erythrocytes incubated with rPLA2G5. In kind it is cell-based, mouse. The conditions noted are these: 100 ng/mL rPLA2G5; 1 h at 37° C. The source says: To elucidate how PLA2G5 affected RBC membranes at the molecular level during hemolysis, the inventors performed lipidomics on erythrocytes in the presence or absence of rPLA2G5 in vitro.
Lipidomics analysis of erythrocytes. The procedures for lipidomics analysis using high-performance liquid chromatography coupled with electrospray tandem mass spectrometry (LC-ESI-MS/MS) were described above. Mouse whole blood was spun at 1,000 g, the plasma and buffy coat were removed, and red blood cells were washed three times in Hepes-buffered saline. Subsequently, a portion of erythrocytes was incubated with 100 μM CaCl2) in Hepes-buffered saline for 3 min at 37° C. Calcium ionophore (Cayman Chemical, A23187) was added to a final concentration of 4 μM, and the cells were further incubated for 10 min at 37° C. to induce membrane phospholipid (PS) scrambling. After that, 2 mM EDTA was added to stop the reaction. PS-exposing or untreated erythrocytes (10^9 cells/mL) were incubated with or without 100 ng/mL of human recombinant PLA2G5 (Cayman chemical, 10009563) for 1 h at 37° C. in Hepes-buffered saline with 2 mM of calcium for the activity of PLA2G5. The samples were kept at −80° C. until the following procedures.

A short description of data set [1]: Recombinant PLA2G5 injection in naive mice. The conditions noted are these: 10 μg rPLA2G5 intravenously. In kind it is in vivo, mouse. The source says: Next, the inventors hypothesized that PLA2G5 impacted red blood cells in vivo during sepsis. To test this hypothesis, the inventors measured the plasma levels of heme, a degradation product of cell-free hemoglobin, in Pla2g5^+/+ and Pla2g5^−/− mice challenged with LPS. The inventors found a significant decrease in the plasma levels of heme in Pla2g5-deficient mice compared to wild type (FIG. 7A). […] The inventors next asked if PLA2G5 would be sufficient to induce intravascular hemolysis in vivo by injecting rPLA2G5 in naïve mice.
Recombinant PLA2G5 injections. C57BL/6J mice were injected intravenously with 10 μg of recombinant PLA2G5 (Cayman chemical, 10009563).
Blood analysis. Mouse whole blood was harvested by cardiac puncture and plasma and serum were isolated using lithium heparin coated Microtainer blood collection tubes (BD 365965) and Microtainer blood collection tubes (BD 365978), respectively. For flow cytometric, bead-based immunoassays, serum was diluted and processed using the LEGENDplex Mouse Macrophage/Microglia Panel (BioLegend 740846) kit. Data were acquired on the NovoCyte flow cytometer (Acea Biosciences/Agilent) and analyzed using the LEGNEDplex software v8 (BioLegend). To measure tissue injury marker levels in sera or plasma, samples were processed by In Vivo Animal Core, University of Michigan, with the following kits for BUN (BioAssay Systems DIUR-100), ALT (Cayman Chemical 700260), and troponin-I (Life Diagnostics CTNI-1-HS) levels according to the manufacturer's instructions, or with a Vet Axcel blood chemistry analyser (Alfa Wasserman). Total plasma heme was measured with the 3,3′,5,5′ tetramethylbenzidine (TMB) peroxidase assay and oxyhemoglobin with a Nanodrop One (Thermoscientific) instrument.

In the case of `CCc1c(C(=O)C(N)=O)c2c(OCC(=O)O)cccc2n1Cc1ccccc1` [varespladib], the “effect on the hemolytic effects of rPLA2G5” value at human recombinant PLA2G5 is “the hemolytic effects of rPLA2G5 were dependent on its phospholipase activity”.

B1: rPLA2G5: human recombinant PLA2G5 (Cayman chemical, 10009563) (protein, UniProt P39877 21-138, looked up)
Phospholipase A2 group V: GLLDLKSMIEKVTGKNALTNYGFYGCYCGWGGRGTPKDGTDWCCWAHDHCYGRLEEKGCNIRTQSYKYRFAWGVVTCEPGPFCHVNLCACDRKLVYCLKRNLRSYNPQYQYFPNILCS
Take B1: in the data set on mouse RBCs (RBCs treated with Ca2+ and calcium ionophore, 5, 50, or 500 ng/mL rPLA2G5, 1 h at 37° C.), the “RBC lysis (cell-free oxyhemoglobin)” value is recorded as “increased RBC lysis in a dose-dependent manner”. The “hemolysis mediated by rPLA2G5 in hypertonic conditions” value in the data set on mouse RBCs (hypertonic solution (100 mM NaCl)) is given as “inhibited hemolysis”. Also, the “hemolysis mediated by rPLA2G5 in hypotonic conditions” value in the data set on mouse RBCs (hypotonic solution (water-diluted Hepes-buffered saline)) was “promoted hemolysis”. The “lipids released from RBC membranes” value in the data set on erythrocytes was “release of lysophospholipids with saturation and lower degrees of unsaturation and fatty acids”. In data set [1], the “plasma level of heme” value is on record as “sufficient to elevate”, the “plasma level of oxyhemoglobin” value is recorded as “sufficient to elevate”, the “serum level of ALT” value is listed as “sufficient to elevate” and the “serum level of BUN” value was “sufficient to elevate”.

The record behind these values is patent publication US20240368307A1, “METHODS AND COMPOSITIONS FOR TREATING SEPSIS” (THE UNIVERSITY OF CHICAGO, priority 2023, published 2024).
